This note sets out measurements from US20100249383A1, “Novel Ligand Involved In The Transmigration Of Leukocytes Across the Endothelium and Uses Therefor” (The Regents of The University of California and The Burnham …, priority 2001, published 2010).

In one assay the test system is HUVECs. Description: Surface binding of iodinated S100A8/A9 to endothelial cells. Also noted: species or system human. As for the experimental part:
Human umbilical vein endothelial cells (HUVECs) were grown in Endothelial Cell growth Medium (Cell Applications) at 37° C. in 5% CO2. Cell staining and Western blotting were performed to confirm expression of mAbGB3.1 antigens. HUVECS at passages 3-4 were used in the binding assays. Purified proteins were radioiodinated using Na^125I and Iodo-Beads Iodinating Reagent as per the manufacturer's protocols. Unbound label was removed on a Sephadex G25 column, followed by concentration of the void volume fractions using Centricon10 concentrators.
Cells grown to confluence in 12 well plates and activated with 1 μM PAF for 4 hr. Activated and unactivated cells were washed with cold HBSS and then incubated with 4 nM to 80 nM ^125I-S100A8/A9 in 1 ml of HBSS, or 20 nM labeled complex in the absence and presence of modulators at 4° C. for 2 h. The reaction was stopped by rapid removal of unbound label, and the cells were washed thrice with cold HBSS. They were solubilized in 1 M NaOH followed by addition of an equal volume of 1 M HCl, and the radioactivity associated with the lysates was measured using a gamma counter. […] Panels 2 and 3 show the results for HUVECs incubated with 20 nM labeled complex in the absence or presence of modulators, in 1 ml of HBSS at 4° C. for 2 hours.

Assay [1] has as its system [2-^3H]mannose-labeled CPAE glycoproteins. As to the kind of experiment: Precipitation of mannose-labeled glycoproteins and cross-binding. Also noted: species or system bovine. How it is done:
Calf pulmonary artery endothelial cells (CPAE) cells were labeled with [2-^3H] mannose at 20 μCi/ml for 24 h in alpha MEM containing 10% fetal bovine serum. Cells were harvested by trypsinization, washed thrice in PBS, and lysed in PBS containing protease inhibitors and 0.5% NP40. Protein-rich lysates were prepared by ultrafiltration on YM10 membranes. Purified S100A8/A9 or annexin I proteins were immobilized on Affigel-10, and mixed with the labeled glycoproteins from CPAE cells in 10 mM HEPES buffer pH 7.5 containing 150 mM NaCl, 5 mM KCl, 1.2 mM MgCl2 and 1.3 mM CaCl2 after preclearing the lysates with BSA-Affigel 10. For immunoprecipitations using mAbGB3.1, lysates were precleared with normal mouse IgG-protein G beads and then incubated with Protein G coupled to mAbGB3.1 IgG in PBS. After overnight incubation at 4° C., the individual pellets were washed free of all unbound label until no more counts appeared in the washes, and the radioactivity associated with the pellets was measured.
For cross-binding, label associated with each pellet was first eluted using high salt (5 M MgCl2, which eluted >70% bound label). The eluates were repeatedly desalted on YM10 membranes and resuspended in the respective buffers. Label eluted from mAbGB3.1 gels was mixed with immobilized S100A8/A9 or annexin I and vice versa. Again, after overnight incubation at 4° C., the individual pellets were washed free of all unbound label and counted. […] In comparison, immobilized annexin I precipitated only about 2-3% of mannose labeled glycoproteins from endothelial cells (data not shown).

Assay [2] concerns 0.3 M asialo-COO^− glycopeptide-BSA neoglycoproteins. As to the kind of experiment: ELISA binding of purified proteins to immobilized carboxylated bovine lung glycans. The following applies: FIG. 19 or data not shown. How it is done: In additional ELISA experiments, 96-well plates were coated with 0.3 M asialo-COO^− glycopeptide-BSA neoglycoproteins (250 ng/well) for 4 h at 37° C. (control wells had BSA alone) and blocked with 3% BSA in PBS overnight. The wells were then incubated with purified human annexin I or S100A8/A9 complexes (as appropriate), in 10 mM HUES buffer pH 7.5 containing 150 mM NaCl, 5 mM KCl, 1.2 mM MgCl2 and 1.3 mM CaCl2, in the absence or presence of varying concentrations of 0.3 M asialo-COO^− glycopeptides or 0.3 M asialo-CONHMe-glycopeptides for 2 h at room temperature. This was followed by incubation with anti-bovine annexin I antibody or anti-human S100A8 or anti-S100A9 for 2 h at room temperature. Wells were then washed and incubated with alkaline phosphatase conjugated goat anti-mouse IgG, followed by development with p-nitrophenyl phosphate substrate.
In this Example, experiments conducted to assess amphoterin binding to COO^− glycopeptide coated plates was assayed as described earlier for annexin I and S100 proteins. In addition, bound protein was detected using anti-amphoterin. mAbGB3.1 binding to sRAGE was assessed by first coating sRAGE on microtiter wells for 4 h at 37° C. After blocking with 3% BSA in PBS overnight, wells were incubated with mAbGB3.1 in the presence and absence of COO^−or CONHMe-glycopeptide and developed as described above.

The target of assay [3] is [2-3H]mannose-labeled CPAE glycoproteins. As to the kind of experiment: precipitation of [2-3H]mannose-labeled CPAE glycoproteins by annexin I on Affigel-10 (data not shown).
Assay [4] deals with [2-3H]mannose-labeled CPAE glycoproteins eluted from mAbGB3.1. Description: rebinding to immobilized S100A8/A9 of label eluted from mAbGB3.1 (4,951 cpm added).
Assay [5] addresses cell surface binding sites on human umbilical vein endothelial cells (HUVECs). As to the kind of experiment: binding of 125I-S100A8/A9 to unactivated HUVECs (data not shown).
Assay [6] has as its target [2-3H]mannose-labeled CPAE glycoproteins. As to the kind of experiment: precipitation of [2-3H]mannose-labeled CPAE glycoproteins by S100A8/A9 on Affigel-10 (10,286 cpm added).
In assay [7] the target is cell surface binding sites on human umbilical vein endothelial cells (HUVECs). Description: competition of 20 nM 125I-S100A8/A9 on PAF-activated HUVECs by unlabeled S100A8/A9.
For assay [8], the target named is [2-3H]mannose-labeled CPAE glycoproteins. Description: precipitation of [2-3H]mannose-labeled CPAE glycoproteins by S100A8/A9 on Affigel-10 (20,386 cpm added).
Assay [9] deals with [2-3H]mannose-labeled CPAE glycoproteins eluted from mAbGB3.1. As to the kind of experiment: rebinding to immobilized S100A8/A9 of label eluted from mAbGB3.1 (1,961 cpm added).
The target in a further assay is T1, RAGE (Bos taurus, UniProt Q28173).
T1 construct: from tissue; host or cells: bovine lung (inferred); amphoterin from baculovirus-infected insect cells
T1 sequence (Q28173 23-416): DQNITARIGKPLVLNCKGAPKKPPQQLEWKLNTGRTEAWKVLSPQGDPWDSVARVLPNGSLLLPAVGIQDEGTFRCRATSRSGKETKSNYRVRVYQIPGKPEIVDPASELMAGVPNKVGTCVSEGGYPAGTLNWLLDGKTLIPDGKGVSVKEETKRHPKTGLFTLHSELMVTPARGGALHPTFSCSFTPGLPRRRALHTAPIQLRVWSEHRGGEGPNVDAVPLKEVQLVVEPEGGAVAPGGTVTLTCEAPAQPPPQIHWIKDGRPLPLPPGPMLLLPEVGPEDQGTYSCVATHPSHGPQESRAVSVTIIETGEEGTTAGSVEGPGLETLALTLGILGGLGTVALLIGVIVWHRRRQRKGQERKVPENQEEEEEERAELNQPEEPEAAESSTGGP
Description: Binding assays using ^125I amphoterin on immobilized RAGE. Also noted: species or system bovine. As for the experimental part: Amphoterin was radioiodinated using Na ^125I and Iodo-Beads Iodinating Reagent (Pierce) to a specific activity of 5×10^3 cpm/ng protein. Saturation binding experiments were done by a slight modification of the method of Hori et al (Hori at al., J. Biol. Chem., 270:25752-61 [1995]). Briefly, purified RAGE was immobilized on microliter wells and the wells blocked with 3% BSA. Wells were incubated at 4° C. overnight with increasing concentrations of ^125I amphoterin in HBSS containing 0.1% BSA in the presence or absence of desialylated carboxylate-enriched (COO^−) or CONHMe bovine lung glycopeptides, or 20 μg/ml mAbGB3.1 or an unrelated anti-carbohydrate monoclonal antibody, or 100 fold excess of unlabeled amphoterin. Binding was also tested on RAGE deglycosylated by PNGase F under non-denaturing conditions. Wells were washed, bound amphoterin was eluted with 2 M NaCl, and radioactivity was measured using a gamma counter. Non-linear regression analysis was done using the GraphPad Prism program.

Where “and” joins values, the source holds several entries; their conditions need not be identical. Equal entries are not always repeated.

Regarding “S100A8/A9: heteromeric S100A8/S100A9 complex purified from human neutrophil cytosol”, the IC50 with HUVECs (unlabeled ligand, 20 nM labeled complex, PAF-activated HUVECs, FIG. 20 Panel B, read-out: half maximal competition of specific binding of ^125I-S100A8/A9) is about 500 nM. The “% Bound Radioactivity (mean ± SD)” value was 9% and 8.7 ± 0.5% in assay [1] (primary binding); 31.5 ± 0.2% in [1] (primary binding to mAbGB3.1, eluted label rebinding to S100A8/A9); “about one-third” in assay [1] (primary binding to mAbGB3.1, eluted label rebinding to S100A8/A9, listed as S100A8/A9 complex); 9% in [1] (primary binding, listed as S100A8/A9 complex). For the same molecule, the “binding to immobilized carboxylated vs neutralized glycans” value in assay [2] was “same specificity of binding”.
As for “^125I-S100A8/A9: purified S100A8/A9 radioiodinated using Na^125I”, in the assay with HUVECs (4 nM to 80 nM, 4° C. 2 h, FIG. 20 Panel A), the “binding on PAF-activated HUVECs” value is “dose-dependent and saturable binding”. Moreover, the “binding to unactivated cells, less than to PAF-activated cells” value in the assay on HUVECs (data not shown) is given as 2 fold.

B1: recombinant full-length human annexin I (E. coli BL21(DE3), pET23b) (protein)
chain: MAMVSEFLKQAWFIENEEQEYVQTVKSSKGGPGSAVSPYPTFNPSSDVAALHKAIMVKGVDEATIIDILTKRNNAQRQQIKAAYLQETGKPLDETLKKALTGHLEEVVLALLKTPAQFDADELRAAMKGLGTDEDTLIEILASRTNKEIRDINRVYREELKRDLAKDITSDTSGDFRNALLSLAKGDRSEDFGVNEDLADSDARALYEAGERRKGTDVNVFNTILTTRSYPQLRRVFQKYTKYSKHDMNKVLDLELKGDIEKCLTAIVKCATSKPAFFAEKLHQAMKGVGTRHKALIRIMVSRSEIDMNDIKAFYQKMYGISLCQAILDETKGDYEKILVALCGGN
B1 showed a % of mannose labeled glycoproteins precipitated in assay [3] of 2 to 3%.

B2: purified human S100A8/A9 complex from peripheral blood neutrophils (ligand)
chain 1: MLTELEKALNSIIDVYHKYSLIKGNFHAVYRDDLKKLLETECPQYIRKKGADVWFKELDINTDGAVNFQEFLILVIKMGVAAHKKSHEESHKE
chain 2: TCKMSQLERNIETIINTFHQYSVKLGHPDTLNQGEFKELVRKDLQNFLKKENKNEKVIEHIMEDLDTNADKQLSFEEFIMLMARLTWASHEKMHEGDEGPGHHHKPGLGEGTP
For B2, the cpm bound to gel in assay [4] was determined as 1570 cpm; in [6] it was 928 cpm; in [8], 1700 cpm; in assay [9], 615 cpm. Further, in assay [5], the fold less binding to unactivated than to PAF-activated cells is 2 fold. The molecule also displayed an IC50 in assay [7] of 500 nM.

B3: amphoterin: baculovirus expressed rat amphoterin, neurite growth-promoting protein, ligand of RAGE (protein)
chain: GKGDPKKPRGKMSSYAFFVQTCREEHKKKHPDASVNFSEFSKKCSERWKTMSAKEKGKFEDMAKADKARYEREMKTYIPPKGETKKKFKDPNAPKRPPSAFFLFCSEYRPKIKGEHPGLSIGDVAKKLGEMWNNTAADDKQPYEKKAAKLKEKYEKDIAAYRAKGKPDAAKKGVVKAEKSKKKKEEEDDEEDEEDEEEEEEEEDEDEEEDDDDE
On to B3, for which the Bmax result with RAGE (in presence of soluble COO^− glycopeptides) is “approximately 34.7±3.7 fmole/well”; with RAGE (native purified RAGE), “approximately 52.7±4.3 fmole/well”. For the same molecule, the “binding to immobilized carboxylated vs neutralized glycans” value in [2] is “carboxylate dependent manner”.
